The source of these data is publication doi:10.1101/844829.

Experiment [1] addresses GMPCPP-stabilized microtubules polymerized from porcine tubulin (porcine) (UniProt P02550). The experiment can be described thus: optical tweezers with 2D force clamp.
Experiment [2] addresses Rhodamine-labeled GMPCPP-stabilized microtubules from porcine tubulin (10 % rhodamine-labeled tubulin) (porcine) (UniProt P02550). Description: single-molecule TIRF microscopy.

For the substance “Full-length budding yeast Kip3 (Kip3-eGFP-His6) (from UniProt P53086 1-805) (natural protein)”, in experiment [1], the end residence time at the microtubule plus end (sideward load 0.5 pN) was found to be 33 s, the end residence time extrapolated to zero load from the high-assisting-load data is 17 s and the mean end residence time at the microtubule plus end (without load) was determined as 64 s. For the same substance, in experiment [2], the mean end residence time at the microtubule plus end (no load) came out at 80 s and the mean run time on the microtubule (no load) is 150 s.
